Assay results taken from the DeepSol protein solubility set.

Assay: soluble on expression in E. coli; label from the status in PepcDB or PDB records

Row | Sequence | soluble on expression in E. coli
1 | MDVNQFTELITKLQSADNDIRKQAEEVYEKIEGPTKVAALFEAYTHHTNNSDARSTVLVFLRRVLARDWDAIWETLNEENKQRILAKVLEMIVHETELSIKKKIADLISEIASNLIDDSGDMTWGGVLELMDHCLKSEDLTGNYIALLILRGCPIIFGNRLAHFLPTLKVVLEKCMATPDLQIKATAVRAVIAFAVDNDEEKDVVRLMTSLVPNVLQVCNETSDEDDSDGPLGEFAELASSLPKCLNTHMSQVLQVTLAIAGNKEKNEMVRQNAIEVICSYMESAPKGLKKYAPGALGPILETLLSCMTEMDDDVLNEWLNEIEEEEDYEDIPIIAESAIDRVACCINGKVMLPVFLPLVEKLLTSEDWKMKHAALRAFSAVGEGCQRSMEPHIEQIMAHITNYVNDAHPRVQYAACNAIGQMSSDFAPTLQKKCHAAVIPALLESLDRTDVPRVCAHAASALVNFAEECPKSIIGQYLPFILQKLENVLSAVFNRLGDKRYQVVVENIVTAIASVAEAAEELFKEHHARLIPNLVHILQNVGELKELRGKTIECISLIGYAVGKEQFHATAIEILNLLGDGMKDLAIDDPQYSYMISSWTRFCSILGADFAPFLPVVMDPVLRAARYRPDFNIFNNEDVHENEEGVEYHGIGGEKTVGIRTSGLEEKATACDMLVAFAKEMKEAFMPYVVDVYELAIKNLDFGLHDGVRTASAEIMPCLLTCVEKQGLADKRRLWCEFLKALTTSMEEEDDVEILASFMTTIGSCIEVMKTEGIAEEEVQLIISVLLKQLENYGKRMSDRPVEDEDDDDAEAKEELDYFMELEASCLGAISDLTHSLMKEFKGTIFEGMINVFNCAIQLIEGSKQYFERQWGMCLLDDAIEFGVGHMPTRFPKLIPIMYKLLGDEYPEVRQAASYGFGVMAINYHQISDYRNEILSCLEPLAAMIQREDARATEESTVATENAISAFAKIIGNVPLPAEAYGKVVEMFLSWLPTYSDTEESPYIYTCLAELFDKQDAALFGPENQNLPRIFLVCLLSIANDAFNDDDSGNQTKQRIVTILKQIYASFPQFAQQDGIDEHLTSVLQQTLNGQ | not soluble
2 | MGSDKIHHHHHHMQHWAIFATDSYSGSLLGRMLAADIQPDEGQICNLPARVGWVSLGLQQALLERELAKDELDYGSTVEALVLECCQDSAQLPALLQKVGLEPLRQRGFRQLSTGETRRVMLARALAMLPQLLILDDPYAGLDAEHQGSLSELLCEVAAHSQLLVITSRQEELPPCISHVALFNSEMLKSGQHVHKLSAPMSIEQWHSHPVMAQLNALSASRSDELLALMERQRHNAEAFDPLVEIKNGKVEYVSCLIFKGVNWRINAGQHWQVRGPNGCGKSTLLGLILGDHPQCYSNDITLFGRPRGSGESIWQIKQRIGIVSSALHLQYRVSCSALDVLLSGFYDSIGLYHKPTKPQVDLAKEWLAILHMNEFASTGFKQLDYGQQRLLLIGRALIKQPLLLILDEPYQGLDFINRTLVMRALEMIAEHHLSQLLYVSHHREDALPAIKNFVDFIKQDNGYSVEVSHRPNELAQRMPIP | not soluble
3 | SNAMKTLFLQYPACSTCQKAKKWLIENNIEYTNRLIVDDNPTVEELKAWIPLSGLPVKKFFNTSGVVYKELKLSSKLPTMTEEEQIALLATNGKLVKRPLVVTERFVLVGFKPEEWEKLK | soluble
4 | MGSDKIHHHHHHMDFTEYQEEIIEDVKSCLESLQVQPILFMGAGISQRYIKAPDWEGLLKQLAEICPLIKRHYGYYSQTKGDNKPLIASDFCDFYAEWAWDDGKDRYPETYFEGTTPKDIYIKHEIASILNELSNSVDFSNMEYTEEVQKLRKVKPHAIITTNYDDTLEKIFDNYQAIVGHNVVKVNYSSYGEIMKIHGSSHEVESIVITNEDYVDFYKRKKYISAKLLTYFAEHPLFFFGYSINDENIKAILSDIDEIIAPNNALIPNIYLVSFSKDCEATGSHQKELLIGVGENKSIRIKVIYANDFGWIFDALSSNTPEISVNPKLVRAFLARTYTFASESLVKQELPYDFEMFRDIAEHDDALAKMYGIAELNNGQALNASFPYTMSDLARILDMGSWHYVNQEFEKLRKLTDFNIKASDNNYHVFIKSGKSGVGKYSSEALDLLRKLINGEQFELNP | not soluble
5 | MQSPEKIDPTWEDSVIDSFISFVRSYDGDFTCIYKLADTVSDEYSLQKIIDFLSSTPQGKQAFQKRPQLGVVDLPKLHQLPTDTLGYVYADQMLQNNLQPLQSHEIDNDYQFFKTHITETHDLWHIVTGADTSILGEIQLEAFYVSQLYASRFWLALLAKNLLKAVIYDIELSTPYMDAISTGWVMAKQAKPLFGLEWNLLWEKPLADVRTSLNIILPVNLEHHHHHH | soluble
6 | MAHHHHHHMLRFTHRALARKAAVKAGSRTSAAAGATAALHAAPAAPQNAVSIPPIPGVRSVRAFRTQKMEALQPQPAAATAGRKAFAAKGSKHVKAALKSRPSKKVKLPKKAAAPSRAQQAQQVKHAKQLKAPKSAAKEISKKAKTAKARK | soluble
7 | MTGATGFIGKYIIDNLLARGFHVRALTRTARAHVNDNLTWVRGSLEDTHSLSELVAGASVVVHCAGQVRGHKEEIFTRCNVDGSLRLMQAAKESGFCQRFLFISSLAARHPELSWYAKSKYVAEQRLAAMADEITLGVFRPTAVYGPGDKELKPLFDWMLRGLLPRLGAPDTQLSFLHVTDFAQAVGQWLSAETVQTQTYELCDGVAGGYDWQRVRQLAAKARCGSVRMVDIPLPVLTGLADISTALSRLAGKEPMLTRSKIRELTHADWSASNNRISEDINWFPGISLEHALRNGLF | not soluble
8 | MAHHHHHHMHPPSSGQGLFPRYGGGWMHQFGHVYALQQELLDPNANNWFRAVELWHTARQEGVAMNVSHFTSILRQCVQPGAWAQSLQVLKQMKRENVRPDVVGVGCALAACVEGKHYDEVENIFATFHKTMLLDSVCHLALIRARQESGNAKGAIAAGKQQQADQVPFLPYTYTHLLEACNAEDDAAYAMELVRNMHSEQWVPSQCAMLAIEDLGRRHERLAAFSRPLLSASDKADSALPSFDASRRLLPPEW | not soluble
9 | KNFNPPTRRNWESNYFGMPLQDLVTAEKPIPLFVEKCVEFIEDTGLCTEGLYRVSGNKTDQDNIQKQFDQDHNINLVSMEVTVNAVAGALKAFFADLPDPLIPYSLHPELLEAAKIPDKTERLHALKEIVKKFHPVNYDVFRYVITHLNRVSQQHKINLMTADNLSICFWPTLMRPDFENREFLSTTKIHQSVVETFIQQCQFFFYNGEIVE | soluble
10 | MGGIFSKKEKSPKSAPVSDQDNAILALKTQRDKMKQMIKRKENCLEKERQLAKQLIKDGRKDRALLLLKKKRYQEKIIDQTLNHLSKIEQMVNDLEFAEVQQRVTDGLRQGNEALKKMNQLFDIDEIDRIMEETKEAAEYQEEISNMLSGQLSNTDVSDVEKELEDLLAAEWGTVQLPEAPSHELPEAERERQKEKEKPRREKIALEA | not soluble
11 | MHYCDLDIAECDGVYPPSEDSFLIIEYASCSGKAIEIGCGTGIVSICFLKRGCDIEAVDISDLAVECAKDNASRNGLTLKVYRSDLFSGVSGTYDTILFNAPYIPVEGEDASWSGGRNLEVVSRFLGQAREHLSASGQIYIVLSDLTDNEGMFRMMGYDYFIIKKISFEFEAIVLYKLTLKALEHHHHHH | soluble
12 | MPRLALRQYNFYYRVNGEKAEELLKEYGEDGDFLLRYSESNPQNFSISVRVAEDKILHIKVTKYESDMLSIFEDERTTPNQFGSITELAEFYMEFPEKLREKNGLFLELKKPVYVPYHLEACAEEQRRTQLYRWWHGNLPASSANKLLQTEKNGTYLLRASQHIPGALVISAKTEGQVVHLTIYQDPSTGRFNIDGDRTKFQSAWLLIDSYSKNPIVEKGEASRVLYLEEPLFNTFIEADLFVDRFEIIRRPINPRESMEKTGISEEFDRLSQEALPAEQYLSKREGRRPVNAEKNRYKNIVPFDHTRVILTDRPNTPGSDYINASYVRFENSQRTKNVTFACEKSFIATQGCLETTISDFWSMVWQENSRVIVMPTMENERKEKCARYWPAEVNKPEVHGDISLTCTIERKVQRAVSDEVKAELEQEKTNRIAKGLVPEAELNGDGISYILRTLVMKKGKDTREIRQLQYLTWPDHGCPLHPYAVLNFLEDVDREYDYFNAQPIAASLPQGPIVVHCSAGIGRTGTVLVLDALLNQVKKVGLLCPMDVYKMVKYVRTYRSGLVQTEQQYQFLYKALAFYLKNNNPYPVKSFIDGDTDAFDFPRRLRPTPNASRPSSARQVTSSRPSSSASSRTSHSRPRTGPQAEPIFERSTSSTSSSSTLLKSTKK | not soluble
13 | MSLNALKREDAANKKLGVLIYENVQPMDVIGPWEVFATWKTILDASIDMFLVAESSNEVCCANQISLKPHCEFNNSPQFDYLLVPGGAGRREQVNNPRLISFLKKQAQNTDYLLSVCTGAFLLHAAGLLTHHEATTYWRAMPELKSFEDVQLVEKRIVKSGKVWTTGGISSGIDLAFEFISTIAGNDVAGKIQLLFEYFPECKLYSQPAMVSELPSYYATKKDEAVLEMNLPDYIKEYFKKSEGHHHHHH | soluble
14 | SLCIDRQLYSAVQNSNRQKHQPLNSYVSLSDENESDHLEGSWSEDPEALIIDQESTRTLEREITKVLSPMENKVLDYYLRGYGYVKIAEIMGKTPKSIDNALQRIRGKIRNFSAPVQK | not soluble
15 | MRDTRGGDQGGGLEAQGGAEARNALPPETIVLILPWEPGSRRQPLKAGQVILKWGGYTMPYLVGPKGQVVIAKEIRERLGIRPGWRVIQRLVDDHVELYFLPPPHKASLKGLLRDKIRGTVSEEAWAEARERAWRASWSEEGEG | soluble
16 | GSAGERIYNISGNGSPLADSKEIFLTVPVGGGESLRLLASDLQRHSIAQLDPEALGNIKKLSNRLAQICSSIRTHK | soluble
17 | MKNLTTIKQTNKNVKQERRKKYADLAIQGTNNSSIASKRSVELLYLPKLSSANNFQMDKNNKLLEYFKFFVPKKIKRSPCINRGYWLRLFAIRSRLNSIIEQTPQDKKIVVVNLGCGYDPLPFQLLDTNNIQSQQYHDRVSFIDIDYSDLLKIKIELIKTIPELSKIIGLSEDKDYVDDSNVDFLTTPKYLARPCDLNDSKMFSTLLNECQLYDPNVVKVFVAEVSLAYMKPERSDSIIEATSKMENSHFIILEQLIPKGPFEPFSKQMLAHFKRNDSPLQSVLKYNTIESQVQRFNKLGFAYVNVGDMFQLWESADEATKKELLKVEPFDELEEFHLFCHHYVLCHATNYKEFAFTQGFLFDRSISEINLTVDEDYQLLECECPINRKFGDVDVAGNDVFYMGGSNPYRVNEILQLSIHYDKIDMKNIEVSSSEVPVARMCHTFTTISRNNQLLLIGGRKAPHQGLSDNWIFDMKTREWSMIKSLSHTRFRHSACSLPDGNVLILGGVTEGPAMLLYNVTEEIFKDVTPKDEFFQNSLVSAGLEFDPVSKQGIILGGGFMDQTTVSDKAIIFKYDAENATEPITVIKKLQHPLFQRYGSQIKYITPRKLLIVGGTSPSGLFDRTNSIISLDPLSETLTSIPISRRIWEDHSLMLAGFSLVSTSMGTIHIIGGGATCYGFGSVTNVGLKLIAIAK | soluble
18 | MIVLVTGATAGFGECITRRFIQQGHKVIATGRRQERLQELKDELGDNLYIAQLDVRNRAAIEEMLASLPAEWCNIDILVNNAGLALGMEPAHKASVEDWETMIDTNNKGLVYMTRAVLPGMVERNHGHIINIGSTAGSWPYAGGNVYGATKAFVRQFSLNLRTDLHGTAVRVTDIEPGLVGGTEFSNVRFKGDDGKAEKTYQNTVALTPEDVSEAVWWVSTLPAHVNINTLEMMPVTQSYAGLNVHRQ | soluble
19 | MGSDKIHHHHHHNKESTTECQTIDFSTLFDGQPEKIPLKEWAKSIHFVQLETNDSILIGNIRATILHKDKILVHHNNLSLFDLSGKFICNIGSKGGGPTEYSGINNAWTDDEGIHIFDIDNKIKTYNWNGKWIKTEPIPESNIKEVFPLASGNNIKAGYIQNITGNEPHKIYLFKDSTILAKIPYGKSFQKGEMTMVFYNECYPFHADGRTFFKEMFNDTIFSIDNQYQPIPRWYIELGKYKIAEDARYTLTDPRKSVFDNAATLTPIGKWDNKLFFSARANKQNYLFYYDLKEKKSNSIQISYPENSFAIPEEHSFIPKCMSDDGKYLISYEIQENDENPVIILAEK | not soluble
